Our source for the Kd values is US20220064329A1 (Novo Nordisk, published 2022).

To fix the notation:
T1: recombinant human activated Factor VII (FVIIa) (human, UniProt P08709 61-212; P08709 213-466, ten glutamate residues of the Gla domain may be gamma-carboxylated)
T1 construct: chains tethered by a disulfide bond; also called Factor VIIa; rFVIIa
T1 sequence 1: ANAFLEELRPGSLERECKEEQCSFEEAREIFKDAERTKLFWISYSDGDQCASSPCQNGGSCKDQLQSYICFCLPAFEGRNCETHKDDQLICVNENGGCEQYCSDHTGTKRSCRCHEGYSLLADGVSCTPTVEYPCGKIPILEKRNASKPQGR
T1 sequence 2: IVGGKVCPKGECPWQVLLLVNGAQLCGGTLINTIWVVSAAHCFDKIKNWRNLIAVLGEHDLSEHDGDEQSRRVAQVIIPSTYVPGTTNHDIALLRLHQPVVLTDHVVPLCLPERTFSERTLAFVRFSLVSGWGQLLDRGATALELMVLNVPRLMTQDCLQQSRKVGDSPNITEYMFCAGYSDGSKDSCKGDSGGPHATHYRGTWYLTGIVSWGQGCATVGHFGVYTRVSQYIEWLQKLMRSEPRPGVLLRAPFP

B1: VH SEQ ID NO 522 / VL SEQ ID NO 398 (antibody, IgG4, V domains shown)
VH: QVQLQESGPGLVEPSQTLSLTCTVSGYSISSDSAWSWIRQPPGKGLEWIGYIQYSGSTNYNPSLKSRVTISRDTSKNQFSLKLSSVTAADTAVYYCARSVNYYGNSFAVGPWGQGTLVTVSS
VL: EIVLTQSPATLSLSPGERATLSCRASQGVSDYLAWYQQKPGEAPRLLIKYTSQPATGIPARFSGSGSGTDFTLTISSLEPEDFAVYYCQNGHSFPLTFGQGTKLEIK
notes: humanized 11F2; IgG4 S228P/kappa
B2: VH SEQ ID NO 530 / VL SEQ ID NO 342 (antibody, IgG4, V domains shown)
VH: B1 VH with P111Y
VL: B1 VL with V29I, A34H, E42Q, T69R, Q100A, I106L
notes: as for B1
B3: VH SEQ ID NO 530 / VL SEQ ID NO 422 (antibody, IgG4, V domains shown)
VH: B1 VH with P111Y
VL: B1 VL with E42Q, T51A, N90Q
notes: as for B1
B4: VH SEQ ID NO 522 / VL SEQ ID NO 494 (antibody, IgG4, V domains shown)
VH: B1 VH
VL: B1 VL with A34H, E42Q, T51A, F83V
notes: as for B1
B5: VH SEQ ID NO 538 / VL SEQ ID NO 310 (antibody, IgG4, V domains shown)
VH: B1 VH with S30T, G45K, P111Y
VL: B1 VL with V29I, E42Q, T51A
notes: as for B1
B6: VH SEQ ID NO 530 / VL SEQ ID NO 334 (antibody, IgG4, V domains shown)
VH: B1 VH with P111Y
VL: B1 VL with V29I, A34H, E42Q, T51A
notes: as for B1
B7: VH SEQ ID NO 522 / VL SEQ ID NO 438 (antibody, IgG4, V domains shown)
VH: B1 VH
VL: B1 VL with E42Q, T51A, F83V
notes: as for B1
B8: VH SEQ ID NO 530 / VL SEQ ID NO 350 (antibody, IgG4, V domains shown)
VH: B1 VH with P111Y
VL: B1 VL with V29I, A34H, E42Q, Q100A, I106L
notes: as for B1
B9: VH SEQ ID NO 522 / VL SEQ ID NO 462 (antibody, IgG4, V domains shown)
VH: B1 VH
VL: B1 VL with A34H, E42Q, T51A, Q100A
notes: as for B1
B10: VH SEQ ID NO 530 / VL SEQ ID NO 318 (antibody, IgG4, V domains shown)
VH: B1 VH with P111Y
VL: B1 VL with V29I, A34H
notes: as for B1
B11: VH SEQ ID NO 522 / VL SEQ ID NO 446 (antibody, IgG4, V domains shown)
VH: B1 VH
VL: B1 VL with E42Q
notes: as for B1
B12: VH SEQ ID NO 530 / VL SEQ ID NO 470 (antibody, IgG4, V domains shown)
VH: B1 VH with P111Y
VL: B1 VL with A34H, E42Q, T51A
notes: as for B1
B13: VH SEQ ID NO 522 / VL SEQ ID NO 406 (antibody, IgG4, V domains shown)
VH: B1 VH
VL: B1 VL with E42Q, T51A, Q100A
notes: as for B1
B14: VH SEQ ID NO 522 / VL SEQ ID NO 414 (antibody, IgG4, V domains shown)
VH: B1 VH
VL: B1 VL with E42Q, T51A
notes: as for B1
B15: VH SEQ ID NO 530 / VL SEQ ID NO 310 (antibody, IgG4, V domains shown)
VH: B1 VH with P111Y
VL: B1 VL with V29I, E42Q, T51A
notes: as for B1
B16: VH SEQ ID NO 530 / VL SEQ ID NO 358 (antibody, IgG4, V domains shown)
VH: B1 VH with P111Y
VL: B1 VL with V29I, A34H, E42Q
notes: as for B1
B17: VH SEQ ID NO 522 / VL SEQ ID NO 486 (antibody, IgG4, V domains shown)
VH: B1 VH
VL: B1 VL with A34H, E42Q, T51A, A84G
notes: as for B1
B18: VH SEQ ID NO 530 / VL SEQ ID NO 366 (antibody, IgG4, V domains shown)
VH: B1 VH with P111Y
VL: B1 VL with V29L, T51A
notes: as for B1
B19: VH SEQ ID NO 530 / VL SEQ ID NO 478 (antibody, IgG4, V domains shown)
VH: B1 VH with P111Y
VL: B1 VL with A34H, E42Q, T51A, N90Q
notes: as for B1
B20: VH SEQ ID NO 530 / VL SEQ ID NO 494 (antibody, IgG4, V domains shown)
VH: B1 VH with P111Y
VL: B1 VL with A34H, E42Q, T51A, F83V
notes: as for B1
B21: VH SEQ ID NO 530 / VL SEQ ID NO 406 (antibody, IgG4, V domains shown)
VH: B1 VH with P111Y
VL: B1 VL with E42Q, T51A, Q100A
notes: as for B1
B22: VH SEQ ID NO 530 / VL SEQ ID NO 438 (antibody, IgG4, V domains shown)
VH: B1 VH with P111Y
VL: B1 VL with E42Q, T51A, F83V
notes: as for B1
B23: VH SEQ ID NO 530 / VL SEQ ID NO 414 (antibody, IgG4, V domains shown)
VH: B1 VH with P111Y
VL: B1 VL with E42Q, T51A
notes: as for B1
B24: VH SEQ ID NO 522 / VL SEQ ID NO 454 (antibody, IgG4, V domains shown)
VH: B1 VH
VL: B1 VL with A34H, T51A
notes: as for B1
B25: VH SEQ ID NO 530 / VL SEQ ID NO 390 (antibody, IgG4, V domains shown)
VH: B1 VH with P111Y
VL: B1 VL with T51A
notes: as for B1
B26: VH SEQ ID NO 530 / VL SEQ ID NO 502 (antibody, IgG4, V domains shown)
VH: B1 VH with P111Y
VL: B1 VL with A34H, E42Q
notes: as for B1
B27: VH SEQ ID NO 530 / VL SEQ ID NO 430 (antibody, IgG4, V domains shown)
VH: B1 VH with P111Y
VL: B1 VL with E42Q, T51A, A84G
notes: as for B1
B28: VH SEQ ID NO 522 / VL SEQ ID NO 422 (antibody, IgG4, V domains shown)
VH: B1 VH
VL: B1 VL with E42Q, T51A, N90Q
notes: as for B1
B29: VH SEQ ID NO 530 / VL SEQ ID NO 486 (antibody, IgG4, V domains shown)
VH: B1 VH with P111Y
VL: B1 VL with A34H, E42Q, T51A, A84G
notes: as for B1
B30: VH SEQ ID NO 530 / VL SEQ ID NO 374 (antibody, IgG4, V domains shown)
VH: B1 VH with P111Y
VL: B1 VL with V29L, E42Q
notes: as for B1
B31: VH SEQ ID NO 530 / VL SEQ ID NO 454 (antibody, IgG4, V domains shown)
VH: B1 VH with P111Y
VL: B1 VL with A34H, T51A
notes: as for B1
B32: VH SEQ ID NO 522 / VL SEQ ID NO 470 (antibody, IgG4, V domains shown)
VH: B1 VH
VL: B1 VL with A34H, E42Q, T51A
notes: as for B1
B33: VH SEQ ID NO 530 / VL SEQ ID NO 446 (antibody, IgG4, V domains shown)
VH: B1 VH with P111Y
VL: B1 VL with E42Q
notes: as for B1
B34: VH SEQ ID NO 522 / VL SEQ ID NO 478 (antibody, IgG4, V domains shown)
VH: B1 VH
VL: B1 VL with A34H, E42Q, T51A, N90Q
notes: as for B1
B35: VH SEQ ID NO 530 / VL SEQ ID NO 382 (antibody, IgG4, V domains shown)
VH: B1 VH with P111Y
VL: B1 VL with V29L, A34H, T51A
notes: as for B1
B36: VH SEQ ID NO 530 / VL SEQ ID NO 326 (antibody, IgG4, V domains shown)
VH: B1 VH with P111Y
VL: B1 VL with V29I, A34H, A84G, Q100A, I106L
notes: as for B1
B37: VH SEQ ID NO 522 / VL SEQ ID NO 430 (antibody, IgG4, V domains shown)
VH: B1 VH
VL: B1 VL with E42Q, T51A, A84G
notes: as for B1
B38: VH SEQ ID NO 530 / VL SEQ ID NO 398 (antibody, IgG4, V domains shown)
VH: B1 VH with P111Y
VL: B1 VL
notes: as for B1
B39: VH SEQ ID NO 530 / VL SEQ ID NO 462 (antibody, IgG4, V domains shown)
VH: B1 VH with P111Y
VL: B1 VL with A34H, E42Q, T51A, Q100A
notes: as for B1
B40: VH SEQ ID NO 522 / VL SEQ ID NO 502 (antibody, IgG4, V domains shown)
VH: B1 VH
VL: B1 VL with A34H, E42Q
notes: as for B1

Where a chain is given by its changes, count along the chain named. In names and notes the source's numbering stands.

In this assay the target is T1, recombinant human activated Factor VII …. In words: BLI (Fortebio). The protocol:
All steps were performed in running buffer (20 mM HEPES buffer (pH 7.4), 150 mM NaCl, 5 mM CaCl2, 0.03% Tween 20, 1 mg/ml IgG-free BSA) at […] Antibodies were captured on anti-human tips (AHC, Fortebio) for 3 min at a concentration of 10 ug/ml. This was followed by a 3 min incubation to establish a baseline. Following this, association was monitored for 3 min using four different concentrations of VIIa (25 nm, 50 nM, 100 nM, and 200 nM), followed by a 3 mi dissociation. Sensorgrams were analysed using Fortebio data analysis software.
On the technique in general: Biolayer interferometry detects binding as a change in optical thickness at a sensor tip.
For orientation: Kd means the equilibrium constant for the complex coming apart. Turning to B1, the Kd amounted to 320 nM.

Consider B2, for which the Kd was 1.2 nM.

Turning to B3, the Kd came to 26 nM.

In the case of B4, the Kd is 1.7 nM.

In the case of B5, the Kd was 2.5 nM.

On to B6, for which the Kd worked out at 1.2 nM.

Take B7: the Kd was determined as 57 nM.

On to B8, for which the Kd was 0.96 nM.

For the molecule B9, the Kd turned out to be 1.2 nM.

Turning to B10, the Kd was found to be 1.2 nM.

Take B11: the Kd was determined as 170 nM.

Take B12: the Kd was 0.96 nM.

For the molecule B13, the Kd was 17 nM.

With B14, the Kd worked out at 31 nM.

Consider B15, for which the Kd is 2.5 nM.

For the molecule B16, the Kd came to 1 nM.

As to B17, the Kd came out at 1.5 nM.

Regarding B18, the Kd turned out to be 3.2 nM.

Turning to B19, the Kd worked out at 1.4 nM.

B20: the Kd amounted to 1 nM.

For B21, the Kd amounted to 4.3 nM.

In the case of B22, the Kd is 4.6 nM.

As to B23, the Kd worked out at 4.5 nM.

B24: the Kd is 1 nM.

As to B25, the Kd is 4.1 nM.

Take B26: the Kd was determined as 0.94 nM.

For B27, the dissociation constant (Kd) turned out to be 4.9 nM.

Consider B28, for which the Kd was 110 nM.

In the case of B29, the Kd is 0.99 nM.

With B30, the Kd was found to be 4.2 nM.

Turning to B31, the Kd came out at 1.1 nM.

Turning to B32, the Kd is 0.96 nM.

For the molecule B33, the Kd was 7.9 nM.

With B34, the Kd was found to be 1.6 nM.

In the case of B35, the Kd is 1.1 nM.

Regarding B36, the Kd was found to be 1.1 nM.

As for B37, the Kd worked out at 12 nM.

B38: the Kd amounted to 7.1 nM.

B39: the Kd was found to be 1 nM.

As for B40, the Kd came to 1.4 nM.
